In assay [1] the target is Frizzled-2 (human Fzd2) (human) (UniProt Q14332). As to the kind of experiment: SPR (Biacore) binding analysis, text to Table 1 and FIG. 10. A general note: Surface plasmon resonance follows binding to a sensor surface in real time, without labels.
Assay [2] shares this target. The experiment in a line: SPR (Biacore, by Precision Antibody); antibody as ligand, Frizzled-2 as analyte at 0-500 nM.
Assay [3] has the same target. As to the kind of experiment: SPR (BioCore study performed by Precision Antibody), legend of FIG. 10.

Sequence of UniProt Q14332 (Q14332 24-247 limits assumed): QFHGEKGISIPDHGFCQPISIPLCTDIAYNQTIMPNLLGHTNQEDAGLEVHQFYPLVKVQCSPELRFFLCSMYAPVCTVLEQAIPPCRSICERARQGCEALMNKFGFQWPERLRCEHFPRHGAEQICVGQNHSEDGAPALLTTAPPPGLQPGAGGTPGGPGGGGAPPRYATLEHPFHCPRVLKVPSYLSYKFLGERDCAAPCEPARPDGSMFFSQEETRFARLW

Usually Kd stands for the constant that tells how readily two partners part at equilibrium. A higher Kd goes with lower affinity. Usually koff stands for the rate constant with which the complex falls apart. A lower koff goes with a long-lived complex. A word on the kon: it is a measure of how fast the partners come together. As to “anti-Fzd2 antibody (R & D Systems; MAB1307)”, in assay [1], the Kd is less than 20 nM. Also, in assay [2], the Ka came out at 5.2e+07 M⁻¹, the Kd came to 19 nM, the koff was determined as 0.00074 s⁻¹ and the kon was 39000 M⁻¹ s⁻¹. The substance further had a Kd in assay [3] of 20 nM.

For the origin of these results see patent publication US20180002754A1.
